In patent US20200347127A1 (CRESCENDO BIOLOGICS, published 2020):
Read-outs that look alike come from different tables or passages of the source.

Key:
recombinant human IL-17A [1] = target: T1, recombinant human IL-17A (human, UniProt Q16552 24-155); assay: cell-based or functional assay
recombinant human IL-17A [2] = target: T1, recombinant human IL-17A; assay: competition ELISA, IL-17A binding to coated IL-17RA-Fc
recombinant human IL-17A [3] = target: T1, recombinant human IL-17A; assay: SPR (BIAcore T200), IL-17A coupled to CM5 chip, single-cycle kinetics
recombinant human IL-17A [4] = target: T1, recombinant human IL-17A; assay: BIAcore single-cycle kinetics, ligand Il-17, 1:1 binding fit, 25 C (n=1 per legend)
recombinant human IL-17A [5] = target: T1, recombinant human IL-17A; assay: BIAcore single-cycle kinetics on IL-17A (n=2 per legend)
recombinant human IL-17A [6] = target: T1, recombinant human IL-17A; assay: competition ELISA, IL-17A binding to coated IL-17RA-Fc; remark: listed apart in the source
recombinant human IL-17A [7] = target: T1, recombinant human IL-17A; assay: SPR (BIAcore T200), IL-17A coupled to CM5 chip, single-cycle kinetics; remark: listed apart in the source
recombinant human IL-17A [8] = target: T1, recombinant human IL-17A; assay: cell-based or functional assay; remark: listed apart in the source
recombinant human IL-17A [9] = target: T1, recombinant human IL-17A; assay: cell-based or functional assay; remark: listed apart in the source
recombinant human IL-17A [10] = target: T1, recombinant human IL-17A; assay: BIAcore single-cycle kinetics on IL-17A (n=2 per legend); remark: listed apart in the source
recombinant human IL-17A [11] = target: T1, recombinant human IL-17A; assay: BIAcore single-cycle kinetics, ligand Il-17, 1:1 binding fit, 25 C (n=1 per legend); remark: listed apart in the source
recombinant human IL-17A [12] = target: T1, recombinant human IL-17A; assay: SPR (BIAcore T200), IL-17A coupled to CM5 chip, single-cycle kinetics; remark: listed apart in the source
recombinant human IL-17A [13] = target: T1, recombinant human IL-17A; assay: cell-based or functional assay; remark: listed apart in the source
IL-17C = target: T2, IL-17C (UniProt Q9P0M4 19-197, limits assumed); assay: specificity ELISA on coated antigen, VH concentration not given
T2 sequence (looked up): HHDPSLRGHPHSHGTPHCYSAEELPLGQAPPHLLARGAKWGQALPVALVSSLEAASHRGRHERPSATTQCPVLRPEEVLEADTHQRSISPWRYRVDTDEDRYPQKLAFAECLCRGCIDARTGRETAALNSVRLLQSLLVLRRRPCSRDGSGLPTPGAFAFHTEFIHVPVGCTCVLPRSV

recombinant IL-17RA-Fc = target: T3, recombinant IL-17RA-Fc (UniProt Q96F46 33-320); assay: as above
T3 construct: Bought reagent; also called R & D systems cat #177-IR-100; receptor; not shown: Fc part of the bought fusion, not described

IL-17F = target: T4, IL-17F (UniProt Q96PD4 31-163, limits assumed); assay: as above
T4 sequence (looked up): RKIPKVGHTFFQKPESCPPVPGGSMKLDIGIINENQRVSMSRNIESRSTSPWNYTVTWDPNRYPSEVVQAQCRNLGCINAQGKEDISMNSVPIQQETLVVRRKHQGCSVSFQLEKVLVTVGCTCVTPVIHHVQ

murine IL-17A = target: T5, murine IL-17A (murine, UniProt Q62386 26-158, limits assumed); assay: as above
T5 sequence (looked up): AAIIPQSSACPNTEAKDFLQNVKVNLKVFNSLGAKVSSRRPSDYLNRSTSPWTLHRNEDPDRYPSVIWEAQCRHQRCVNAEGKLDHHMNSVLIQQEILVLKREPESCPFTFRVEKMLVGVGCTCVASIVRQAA

recombinant human IL-17A [14] = target: T1, recombinant human IL-17A; assay: BIAcore single-cycle kinetics on immobilised IL-17A, 1:1 binding fit
recombinant human IL-17A [15] = target: T1, recombinant human IL-17A; assay: SPR (BIAcore)

T1 sequence (Q16552 24-155): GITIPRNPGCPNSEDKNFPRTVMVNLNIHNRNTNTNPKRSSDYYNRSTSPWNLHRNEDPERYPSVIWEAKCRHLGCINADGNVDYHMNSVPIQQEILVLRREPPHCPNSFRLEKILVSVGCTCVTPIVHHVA

B1: VH 3.2.1 (clone 3.2 expressed from phagemid vector: with linker residues and His tag) (VHH)
VHH: QVQLVQSGAEVKKPGASVKVSCKASGYNADAYYINWVRQAPGQGLEWMGSIKPNTGATKYAQKFQGRVTITRDTSISTAYMELSRLRSDDTAVYYCASLDRDTWYPHSYAGWFDAWGQGTLVTVSS
notes: Human single VH domain
Cell assay IC50 (nM), IL-17A-induced IL6 release from HT1080 (recombinant human IL-17A [1]): 2.5 nM
IC50 (recombinant human IL-17A [2]): 2500 pM
Kd (recombinant human IL-17A [3]): 230 pM
koff (recombinant human IL-17A [3]): 0.000252 s⁻¹
kon (recombinant human IL-17A [3]): 1.1e+06 M⁻¹ s⁻¹
Kd (recombinant human IL-17A [4]): 150 pM
koff (recombinant human IL-17A [4]): 0.000349 s⁻¹
kon (recombinant human IL-17A [4]): 2.28e+06 M⁻¹ s⁻¹
Kd (recombinant human IL-17A [5]): 212 pM

B2: Family 2 (clone 2.1) (VHH)
VHH: QVQLVESGGGLVQPGGSLRLSCAASGFTFSSYGMGWVRQAPGKGLEWVAKIKQDGSEKDYVDSVKGRFTISRDNAKKSLFLQMNSLRAEDTAVYYCARESIFGIPEDWGQGTLVTVSS
notes: Human single VH domain; also called VH 2.1.1
IC50 (recombinant human IL-17A [6]): 32000 pM
Kd (recombinant human IL-17A [7]): 2000 pM
koff (recombinant human IL-17A [7]): 0.00247 s⁻¹
kon (recombinant human IL-17A [7]): 1.22e+06 M⁻¹ s⁻¹
Cell assay IC50 (nM), IL-17A-induced IL6 release from HT1080 (recombinant human IL-17A [8]): 8.3 nM

B3: Clone 1.2 (VHH)
VHH: EVQLVESGGGLVQPGGSLRLSCAASGFTFSSYSMYWVRQAPGKGLEWVAEIKQDGSVQYYVSDVKGRFTISRDNAKNSLYLQMNSLRAEDTAVYYCAKGEILPLYFDYWGQGTLVTVSS
Cell assay IC50 (nM), IL-17A-induced IL6 release from HT1080 (recombinant human IL-17A [9]): 0.4 nM
Kd (recombinant human IL-17A [10]): 570 pM
Kd (recombinant human IL-17A [11]): 675 pM
koff (recombinant human IL-17A [11]): 2.26e-05 s⁻¹
kon (recombinant human IL-17A [11]): 33500 M⁻¹ s⁻¹
Kd (recombinant human IL-17A [12]): 555 pM
koff (recombinant human IL-17A [12]): 0.000485 s⁻¹
kon (recombinant human IL-17A [12]): 874000 M⁻¹ s⁻¹
EC50 (read off the curve) (recombinant human IL-17A [13]): ~800 pM

B4: Clone 1.15 (VHH)
VHH: EVQLVESGGGLVQPGGSLRLSCAASGFTFSSYSMYWVRQAPGKGLEWVAEIRQDGSEQYYVDSVKGRFTISRDNAKNSLYLQMNSLRAEDTAVYYCAKGEILPLYFDYWGQGTLVTVSS
notes: Human single VH domain
Cell assay IC50 (nM), IL-17A-induced IL6 release from HT1080 (recombinant human IL-17A [9]): 2.5 nM
binding result (IL-17C): no binding
binding result (recombinant IL-17RA-Fc): no binding
binding result (IL-17F): no binding
binding result (murine IL-17A): binds
Kd (recombinant human IL-17A [12]): 232 pM
koff (recombinant human IL-17A [12]): 0.000242 s⁻¹
kon (recombinant human IL-17A [12]): 1.04e+06 M⁻¹ s⁻¹

B5: VH 1.3.3 (clone 1.3 with C terminal extension) (VHH)
VHH: EVQLVESGGGLVQPGGSLRLSCAASGFTFSSYSMYWVRQAPGKGLEWVAEIKQDGSVQYYVDSVKGRFTISRDNAKNSLYLQMNSLRAEDTAVYYCAKGEILPLYFDYWGQGTLVTVSS
notes: Human single VH domain
Kd (recombinant human IL-17A [14]): 680 pM
kon (recombinant human IL-17A [14]): 750000 M⁻¹ s⁻¹

B6: VH 1.3.2 (clone 1.3 with C terminal extension and His tag) (VHH)
VHH: EVQLVESGGGLVQPGGSLRLSCAASGFTFSSYSMYWVRQAPGKGLEWVAEIKQDGSVQYYVDSVKGRFTISRDNAKNSLYLQMNSLRAEDTAVYYCAKGEILPLYFDYWGQGTLVTVSS
notes: Human single VH domain
Kd (recombinant human IL-17A [15]): 630 pM
koff (recombinant human IL-17A [14]): 0.000501 s⁻¹
kon (recombinant human IL-17A [14]): 799000 M⁻¹ s⁻¹
